{
  "source": "patent US20080194019",
  "key": {"[1]": {"tested_on": "MBP-AMPKa (1-312) bacterial fusion protein"}, "FLAG-tagged tuberin": {"molecular_target": "FLAG-tagged tuberin (UniProt P49815)", "sequence (P49815 whole entry)": "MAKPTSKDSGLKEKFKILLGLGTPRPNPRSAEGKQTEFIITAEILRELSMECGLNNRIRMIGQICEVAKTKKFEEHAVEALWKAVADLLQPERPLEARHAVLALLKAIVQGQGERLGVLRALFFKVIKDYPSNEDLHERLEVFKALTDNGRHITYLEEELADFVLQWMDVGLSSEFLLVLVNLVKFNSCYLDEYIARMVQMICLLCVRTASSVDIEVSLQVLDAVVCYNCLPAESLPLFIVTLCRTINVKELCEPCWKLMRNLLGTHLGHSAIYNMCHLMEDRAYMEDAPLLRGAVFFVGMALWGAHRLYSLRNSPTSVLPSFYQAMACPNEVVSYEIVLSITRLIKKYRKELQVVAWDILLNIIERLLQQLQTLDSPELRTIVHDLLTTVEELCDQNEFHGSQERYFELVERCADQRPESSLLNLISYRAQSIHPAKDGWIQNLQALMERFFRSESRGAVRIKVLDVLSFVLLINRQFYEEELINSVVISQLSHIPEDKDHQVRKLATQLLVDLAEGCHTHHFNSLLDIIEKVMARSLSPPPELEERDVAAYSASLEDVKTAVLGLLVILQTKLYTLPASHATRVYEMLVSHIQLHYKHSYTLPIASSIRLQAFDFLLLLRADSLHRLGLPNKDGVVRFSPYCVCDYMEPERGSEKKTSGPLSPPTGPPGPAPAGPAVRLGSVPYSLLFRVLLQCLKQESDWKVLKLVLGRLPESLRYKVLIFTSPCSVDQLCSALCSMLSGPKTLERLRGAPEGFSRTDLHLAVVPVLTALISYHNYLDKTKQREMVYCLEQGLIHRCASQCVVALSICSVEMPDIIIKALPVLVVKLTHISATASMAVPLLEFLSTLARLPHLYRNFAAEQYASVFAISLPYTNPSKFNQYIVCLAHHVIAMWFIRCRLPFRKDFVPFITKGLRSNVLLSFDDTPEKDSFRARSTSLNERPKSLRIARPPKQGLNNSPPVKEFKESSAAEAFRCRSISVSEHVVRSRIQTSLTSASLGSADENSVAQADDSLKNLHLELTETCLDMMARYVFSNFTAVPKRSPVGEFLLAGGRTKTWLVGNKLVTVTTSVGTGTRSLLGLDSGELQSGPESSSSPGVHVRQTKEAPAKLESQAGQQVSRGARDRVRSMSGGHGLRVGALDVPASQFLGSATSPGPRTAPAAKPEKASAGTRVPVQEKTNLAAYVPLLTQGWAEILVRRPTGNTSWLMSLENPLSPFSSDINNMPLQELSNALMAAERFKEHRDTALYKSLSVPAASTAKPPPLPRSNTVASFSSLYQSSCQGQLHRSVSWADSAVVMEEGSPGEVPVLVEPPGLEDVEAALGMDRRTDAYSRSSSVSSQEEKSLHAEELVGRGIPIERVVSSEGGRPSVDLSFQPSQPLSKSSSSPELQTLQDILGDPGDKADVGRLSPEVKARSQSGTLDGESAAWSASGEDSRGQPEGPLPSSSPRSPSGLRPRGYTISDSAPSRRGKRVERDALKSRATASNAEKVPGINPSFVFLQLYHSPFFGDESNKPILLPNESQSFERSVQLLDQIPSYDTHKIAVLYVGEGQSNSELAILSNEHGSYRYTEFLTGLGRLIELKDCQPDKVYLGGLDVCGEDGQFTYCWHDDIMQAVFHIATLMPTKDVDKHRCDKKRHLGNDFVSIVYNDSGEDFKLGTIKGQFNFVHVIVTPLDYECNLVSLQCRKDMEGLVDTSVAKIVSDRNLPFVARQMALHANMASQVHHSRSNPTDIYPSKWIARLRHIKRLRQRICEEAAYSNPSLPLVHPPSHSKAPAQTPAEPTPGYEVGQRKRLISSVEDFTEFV"}},
  "data": [
    {"substance": "Kinase-inactive LKB1 (K78I) coexpressed with STRAD, Flag immunoprecipitate", "values": [
      {"measurement": "AMPK kinase activity towards the SAMS peptide after in vitro kinase reaction with LKB1", "setting": "[1]", "result": "Kinase-inactive LKB1 alone or coexpressed with STRAD was unable to activate AMPK"}
    ]},
    {"substance": "Active recombinant Akt (Upstate Biotechnology)", "values": [
      {"measurement": "in vitro phosphorylation of tuberin; mobility shift on low percentage SDS-PAGE", "setting": "FLAG-tagged tuberin", "result": "This mobility shift in tuberin was not observed when tuberin was phosphorylated by active recombinant Akt, even at levels of tuberin phosphorylation comparable to those induced by AMPK"}
    ]},
    {"substance": "Active recombinant AMPK (Upstate Biotechnology)", "values": [
      {"measurement": "in vitro phosphorylation of tuberin; mobility shift on low percentage SDS-PAGE", "setting": "FLAG-tagged tuberin", "result": "when tuberin was stoichiometrically phosphorylated by AMPK, it underwent a mobility shift"}
    ]},
    {"substance": "MBP-AMPKa (1-312) bacterial fusion protein", "values": [
      {"measurement": "in vitro phosphorylation of FLAG-tagged tuberin by recombinant AMPK pre-activated with wild-type LKB1", "setting": "FLAG-tagged tuberin", "result": "AMPK activated by wild-type LKB1 directly phosphorylated tuberin in vitro"},
      {"measurement": "phosphorylation of the SAMS peptide by unphosphorylated MBP-AMPK", "setting": "SAMS peptide", "result": "bacterial MBP-AMPK is inactive towards the peptide"}
    ]}
  ]
}
